Data published in patent US20240352438A1, “MEANS AND METHODS FOR DETOXIFYING OCHRATOXIN A” (DSM Austria GmbH, priority 2021, published 2024).

Columns and labels:
[1] = OTA detoxification activity assay (specific activity, fluorescence reduction ex/em 390/450 nm); format: biochemical; conditions: SEQ ID NO: 1 = 100%
Outline: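 Recombinant enzyme preparation with 200 ng/mL OTA in 100 mM sodium phosphate, at pH 6.0 and pH 7.5, 37° C. Degradation followed as the fall in fluorescence at ex/em 390/450 nm. Specific activity taken from the initial linear slope; one unit degrades 1 μmol OTA per min at a starting OTA of […].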

[2] = Enzymatic activity comparison: activity remaining after 65° C. for 10 min at pH 6.0, relative to SEQ ID NO: 1; format: physicochemical
Description: To compare the temperature behavior and thermostability of selected enzymes to one another, enzyme was incubated at 65° C. for 10 min at pH 6.0. The enzymatic activity remaining after incubation was compared to the remaining activity of the enzyme of SEQ ID NO: 1 after incubation, the latter being set to 100%, see Table 16.

Molecule | Specific OTA detoxification activities in % compared to the enzyme of SEQ ID NO: 1, pH 6.0 [1] [%] | Specific OTA detoxification activities in % compared to the enzyme of SEQ ID NO: 1, pH 7.5 [1] [%] | Enzymatic activity remaining after incubation, compared to SEQ ID NO: 1 (set to 100%) [2] [%]
111 (protein, exemplary polypeptide) MTTRTRILTAFLSLLAANACAADAAPAAPHTVVLRAARMFDGASGKLVDHPQLTIVGNKIVRIAQGDKAEVPAGAEVVDLGDATLLPGFIDAHVHLSGQSSDNWYGDFFDNMMRFPAEQALYGAYYARITLEAGFTSVRDVGSTDWVALGLRNAIDAGKVPGPRMLVSNYAVGSTGGHADQDPIPPHKLPLAGPLQGVCNGPEECRAAVRYQIKYGANVIKFMPSGGVLSLSDPVDAPELSQDEMNAVIGESHAWGRKVAAHAHGDKAAKMAVAAGVDSIEHGSFIEDDTLRAMKAKNVYLVPTISAIAHVEEKIGTFPPVIAEKGRAAAAQLRQTFRHAVQIGVPIALGTDAGVGAHGSNAREFRYMVENGLTPAQALLAGTANAARLLGTFDRVGTLEAGKLADVVAVPGNPIADITVTERPLFVMKDGVVVRRDAVR | 8 | 52 | 35
122 (protein, exemplary polypeptide) MTTRTRILTAFLSLLAANACAADAAPAAPHTVVLRAARMFDGASGKLVDHPQLTIVGNKIVRIAQGDKAEVPAGAEVVDLGDATLLPGFIDAHVHLSGQSSDNWYGDFFDNMMRFPAEQALYGAYYARITLEAGFTSVRDVGSTDWVALGLRNAIDAGKVPGPRMLVSNYAVGSTGGHADQDPIPPHKLPLAGPLQGVCNGPEECRAAVRYQIKYGANVIKFMPSGGVLSLSDPVDAPELSPDEMNAVIGESHAWGRKVAAHAHGDKAAKMAVAAGVDSIEHGSFIEDDTLRAMKAKNVYLVPTISAIAHVEEKIGTFPPVIAEKGRAAAAHLRQTFRHAVQIGVPIALGTDAGVGAHGSNAREFRYMVENGLTPAQALLAGTANAARLLGTFDRVGTLEAGKLADVVAVPGNPIADITVTERPLFVMKDGVVVRRDAVR | 59 | 80 | 40
119 (protein, exemplary polypeptide) MTTRTRILTAFLSLLAANACAADAAPAAPHTVVLRAARMFDGASGKLVDHPQLTIVGNKIVRIAQGDKAEVPAGAEVVDLGDATLLPGFIDAHVHLSGQSSDNWYGDFFDNMMRFPAEQALRGAYYARITLEAGFTSVRDVGSTDWVALGLRNAIDAGKVPGPRMLVSNYAVGSTGGHADQDPIPPHKLPLAGPLQGVCNGPEECRAAVRYQIKYGANVIKFMPSGGVLSLSDPVDAPELSQDEMNAVIGESHAWGRKVAAHAHGDKAAKMAVAAGVDSIEHGSFIEDDTLRAMKAKNVYLVPTISAIAHVEEKIGTFPPVIAEKGRAAAAHLRQTFRHAVQIGVPIALGTDAGVGAHGSNAREFRYMVENGLTPAQALLAGTANAARLLGTFDRVGTLEAGKLADVVAVPGNPIADITVTERPLFVMKDGVVVRRDAVR | 107 | 101 | 45
121 (protein, exemplary polypeptide) MTTRTRILTAFLSLLAANACAADAAPAAPHTVVLRAARMFDGASGKLVDHPQLTIVGNKIVRIAQGDKAEVPAGAEVVDLGDATLLPGFIDAHVHLSGQSSDNWYGDFYDNMMRFPAEQALYGAYYARITLEAGFTSVRDVGSTDWVALGLRNAIDAGKVPGPRMLVSNYAVGSTGGHADQDPIPPHKLPLAGPLQGVCNGPEECRAAVRYQIKYGANVIKFMPSGGVLSLSDPVDAPELSQDEMNAVIGESHAWGRKVAAHAHGDKAAKMAVAAGVDSIEHGSFIEDDTLRAMKAKNVYLVPTISAIAHVEEKIGTFPPVIAEKGRAAAAHLRQTFRHAVQIGVPIALGTDAGVGAHGSNAREFRYMVENGLTPAQALLAGTANAARLLGTFDRVGTLEAGKLADVVAVPGNPIADITVTERPLFVMKDGVVVRRDAVR | 84 | 78 | 40
113 (protein, exemplary polypeptide) MTTRTRILTAFLSLLAANACAADAAPAAPHTVVLRAARMFDGASGKLVDHPQLTIVGNKIVRIAQGDKAEVPAGAEVVDLGDATLLPGFIDAHVHLSGQSSDNWYGDFFDNMMRFPAEQALYGAYYARITLEAGFTSVRDVGSTDWVALGLRNAIDAGKVPGPRMLVSNYAVGSTGGHADQDPIPPHKLPLAGPLQGVCNGPEECRAAVRYQIKYGANVIKFMPSGGVLSLSDPVDAPELSQDEMNAVIGESHAWGRKVAAHAHGDKAAKMAVAAGVDSIEHGSFIQDDTLRAMKAKNVYLVPTISAIAHVEEKIGTFPPVIAEKGRAAAAHLRQTFRHAVQIGVPIALGTDAGVGAHGSNAREFRYMVENGLTPAQALLAGTANAARLLGTFDRVGTLEAGKLADVVAVPGNPIADITVTERPLFVMKDGVVVRRDAVR | 31 | 95 | 62
127 (protein, exemplary polypeptide) MTTRTRILTAFLSLLAANACAADAAPAAPHTVVLRAARMFDGASGKLVDHPQLTIVGNKIVRIAQGDKAEVPAGAEVVDLGDATLLPGFIDAHVHLSGQSSDNWYGDFFDNMMRFPAEQALYGAYYARITLEAGFTSVRDVGSTDWVALGLRNAIDAGKVPGPRMLVSNYAVGSTGGHADQDPIPPHKLPLAGPLQGVCNGPEECRAAVRYQIKYGANVIKFMPSGGVLSLSDPVDAPELSQDEMNAVIGESHAWGRYVAAHAHGDKAAKMAVAAGVDSIEHGSFIEDDTLRAMKAKNVYLVPTISAIAHVEEKIGTFPPVIAEKGRAAAAHLRQTFRHAVQIGVPIALGTDAGVGAHGSNAREFRYMVENGLTPAQALLAGTANAARLLRTFDRVGTLEAGKLADVVAVPGNPIADITVTERPLFVMKDGVVVRRDAVR | 78 | 82 | 64
125 (protein, exemplary polypeptide) MTTRTRILTAFLSLLAANACAADAAPAAPHTVVLRAARMFDGASGKLVDHPQLTIVGNKIVRIAQGDKAEVPAGAEVVDLGDATLLPGFIDAHVHLSGQSSDNWYGDFFDNMMRFPAEQALYGAYYARITLEAGFTSVRDVGSTDWVALGLRNAIDAGKVPGPRMLVSNYAVGSTGGHADQDPIPPHKLPLAGPLQGVCNGPEECRAAVRYQIKYGANVIKFMPSGGVLSLSDPVDAPELSQDEMNAVIGESHAWGRKVAAHAHGDKAAKMAVAAGVDSIEHGSFIEDDTLRAMKAKNVYLVPTISAIAHVEEKIGTYPPVIAEKGRAAAAHLRQTFRHAVQIGVPIALGTDAGVGAHGSNAREFRYMVENGLTPAQALLAGTANAARLLGTFDRVGTLEAGKLADVVAVPGNPIADITVTERPLFVMKDGVVVRRDAVR | 58 | 94 | 100
120 (protein, exemplary polypeptide) MTTRTRILTAFLSLLAANACAADAAPAAPHTVVLRAARMFDGASGKLVDHPQLTIVGNKIVRIAQGDKAEVPAGAEVVDLGDATLLPGFIDAHVHLSGQSSDNWYGDFFDNMMRFPAEQALYGAYWARITLEAGFTSVRDVGSTDWVALGLRNAIDAGKVPGPRMLVSNYAVGSTGGHADQDPIPPHKLPLAGPLQGVCNGPEECRAAVRYQIKYGANVIKFMPSGGVLSLSDPVDAPELSQDEMNAVIGESHAWGRKVAAHAHGDKAAKMAVAAGVDSIEHGSFIEDDTLRAMKAKNVYLVPTISAIAHVEEKIGTFPPVIAEKGRAAAAHLRQTFRHAVQIGVPIALGTDAGVGAHGSNAREFRYMVENGLTPAQALLAGTANAARLLGTFDRVGTLEAGKLADVVAVPGNPIADITVTERPLFVMKDGVVVRRDAVR | 85 | 90 | 23
124 (protein, exemplary polypeptide) MTTRTRILTAFLSLLAANACAADAAPAAPHTVVLRAARMFDGASGKLVDHPQLTIVGNKIVRIAQGDKAEVPAGAEVVDLGDATLLPGFIDAHVHLSGQSSDNWYGDFFDNMMRFPAEQALYGAYYARITLEAGFTSVRDVGSTDWVALGLRNAIDAGKVPGPRMLVSNYAVGSTGGHADQDPIPPHKLPLAGPLQGVCNGPEECRAAVRYQIKYGANVIKFMPSGGVLSLSDPVDAPELSQDEMNAVIGESHAWGRKVAAHAHGDKAAKMAVAAGVDSIEHGSFIEDDTLRAMKAKNVYLVPTISAIAHVEEKIGYFPPVIAEKGRAAAAHLRQTFRHAVQIGVPIALGTDAGVGAHGSNAREFRYMVENGLTPAQALLAGTANAARLLGTFDRVGTLEAGKLADVVAVPGNPIADITVTERPLFVMKDGVVVRRDAVR | 87 | 78 | 42
